In publication PMC11681865, “Oligomerization of protein arginine methyltransferase 1 and its functional impact on substrate arginine methylation” (The Journal of Biological Chemistry, 2024):

Tests used:
[1] = target: T1, PRMT1-WT (Homo sapiens, UniProt Q99873); test: Radiometric filter-binding assay, PRMT1-WT activity in presence of inactive PRMT1 mutants; assay type: biochemical; conditions: 0.05 μM PRMT1-WT, mutant 20 min on ice, 50 μM peptide, 2 μM [3H]-SAM and 48 μM SAM, 30 min
T1 construct: His-MBP (N, cleaved yes); made in house; host or cells: Escherichia coli BL21 (DE3) RIPL
T1 sequence (Q99873 11-353 isoform Q99873-3): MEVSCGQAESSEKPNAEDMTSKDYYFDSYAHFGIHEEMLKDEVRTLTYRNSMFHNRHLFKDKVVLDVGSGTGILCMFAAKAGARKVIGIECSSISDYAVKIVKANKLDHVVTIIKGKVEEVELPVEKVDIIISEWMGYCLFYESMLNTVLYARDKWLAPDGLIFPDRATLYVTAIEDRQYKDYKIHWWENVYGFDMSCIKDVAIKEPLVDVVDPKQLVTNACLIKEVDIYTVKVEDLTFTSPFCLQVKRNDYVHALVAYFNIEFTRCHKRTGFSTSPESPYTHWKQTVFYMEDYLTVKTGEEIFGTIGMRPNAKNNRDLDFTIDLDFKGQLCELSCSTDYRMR
Description: (§1) Constant PRMT1-WT concentration and various PRMT1-E153Q concentrations were maintained in the aqueous buffer prior to adding peptide and SAM to initiate the reaction. The reaction was quenched with isopropanol. The reaction mixture was loaded on the P81 filter paper that was air dried, washed, and immersed in scintillation cocktail for scintillation counting. […] To eliminate this possibility, we created a double mutant (PRMT1-H293G/E153Q) to further abolish PRMT1 activity. […] We then tested PRMT1-WT activity in the presence of various concentrations of PRMT1-H293G/E153Q (Fig. 7, G–L). […] These increasing trends were the same as that of PRMT1-E153Q. […] Again, similar to Figure 6, D–F, the increase in kcat started to slow down a bit at >1 μM concentrations of PRMT1-E153Q or PRMT1-H293G/E153Q, which is likely due to substrate overconsumption under these conditions.
Figure 7 Arginine methylation of various peptides by high-order oligomeric PRMT1-WT and PRMT1 mutants. Filter-binding assay was used to characterize the methyltransferase activity. Firstly, 0.05 μM of PRMT1 was incubated with various concentrations of PRMT1-E153Q or PRMT1-H293G/E153Q on ice for 20 min. Afterward, 2 μM radioactive [3H]-SAM and 48 μM SAM and 50 μM of indicated peptides was added and incubated for 30 min before quenching the reaction with 100% isopropanol. […]

[2] = system: R4 peptide; test: Radiometric methyltransferase activity of PRMT1 mutants on R4 peptide; assay type: biochemical; conditions: various mutant concentrations, 50 μM peptide, 2 μM [3H]-SAM and 48 μM SAM, 30 min
Description: as §1
To perform PRMT1 and PRMT1 mutants (PRMT1-E153Q and PRMT1-H293G/E153Q) concentration-dependent measurement, each reaction contained various concentration of PRMT1 or PRMT1 mutant, 50 μM of peptide, and 50 μM SAM (48 μM cold and […] ^3H-SAM). The reaction buffer consisted of 50 mM Hepes pH 8.0, 10 mM NaCl, 0.5 mM EDTA, and 0.5 mM DTT. The reaction was incubated at room temperature for 30 min after being initiated with ^3H-SAM SAM. An equal amount of 100% isopropanol to the total reaction volume was used to quench the reaction. […]

Substance: PRMT1-H293G/E153Q: double mutant created to further abolish PRMT1 activity
- kcat of PRMT1-WT (CPM / PRMT1-WT concentration) in presence of mutant [1]: increased as a function of PRMT1-H293G/E153Q concentration
- methylated product amount (CPM) of PRMT1-WT in presence of mutant [1]: gradually went up as the concentrations of the double mutant increased
- methyltransferase activity of PRMT1 mutant [2]: even weaker than PRMT1-E153Q, greatly diminished to near background level
